In publication doi:10.1101/2024.11.03.621760 (bioRxiv, 2024):

Assays:
[1] = target: prefusion MERS-CoV EMC/2012 S ectodomain trimer (MERS-CoV-2P S) (MERS-CoV EMC/2012)
[2] = target: prefusion MERS-CoV EMC/2012 S ectodomain trimer (MERS-CoV-2P S) (MERS-CoV EMC/2012); assay: SPR

| Binder | Table S6, cHALC3 919: neutralisation IC50, EMC/2012 S VSV pseudovirus, exp 1 [1] [nM] | Table S6, cHALC3 919: neutralisation IC50, EMC/2012 S VSV pseudovirus, exp 2 [1] [nM] | Table S6, nHALC3 919: neutralisation IC50, EMC/2012 S VSV pseudovirus, exp 1 [1] [nM] | Table S6, nHALC3 919: neutralisation IC50, EMC/2012 S VSV pseudovirus, exp 2 [1] [nM] | Kd [2] [nM] | koff [2] [s⁻¹] | kon [2] [M⁻¹ s⁻¹] |
| --- | --- | --- | --- | --- | --- | --- | --- |
| cHALC3_919_cb3 (designed binder) MSGSEELLEELRELLERLQELLELIEQGKITPEQLREAIALLIEVLQILYEALRELAEQLQRLREELGGSGSPVKRFVREVLEEAEEAYEKGDRRQFEELLWLAEWAARDANDEELEEEIREFEKEVKGS | 15.3 | 5 | – | – | – | – | – |
| nHALC3_919_cb3 (designed binder) MSGSPVKRFVREVLEEAEEAYEKGDRRQFEELLWLAEWAARDANDEELEEEIREFEKEVKGSGSEELLEELRELLERLQELLELIEQGKITPEQLREAIALLIEVLQILYEALRELAEQLQRLREELGGS | – | – | 5.9 | 1.7 | 0.11 | 6e-05 | 560000 |
